Source: paper PMC9105384, “Ethyl Gallate Dual-Targeting PTPN6 and PPARγ Shows Anti-Diabetic and Anti-Obese Effects” (International Journal of Molecular Sciences, 2022)

Substrate: Cc1cc(=O)oc2c(F)c(OP(=O)(O)O)c(F)cc12
Test: purified protein, by the assay type
Design: DiFMUP hydrolysis by purified PTPs, fluorescence Ex355/Em460, initial rates over 10 min; Michaelis-Menten and Lineweaver-Burk Km
Procedure: The enzymatic activity of each PTP was evaluated using 6,8-difluoro-4-methylumbelliferyl phosphate (DiFMUP) as the surrogate substrate. To reach within the range of the initial rate (v0) during the measurement for 10 min, the pH and concentration of each PTP were optimized and are listed in Table S3. To determine the Km values, each PTP with optimized concentration was added to the reaction buffer (20 mM Bis-Tris at pH 6.0 or Tris at pH 7.0 and 8.0, 150 mM NaCl, 2.5 mM dithiothreitol (DTT), 0.01% Triton X-100) containing various concentrations of DiFMUP to obtain a final volume of 100 μL in a 96-well plate. Fluorescence intensities were measured once every minute for a complete 10 min duration using a Victor™ X4 Multilabel Plate Reader (Perkin Elmer, Waltham, MA, USA) at excitation/emission = 355 nm/460 nm. The initial rates of the reaction were determined using a previously described procedure for calculating the amount of product formation. To screen a library of 1033 natural products (Chengdu Biopurify Phytochemicals Ltd., Chengdu, China) against 20 PTPs, each PTP with an optimized concentration was added to the reaction buffer with an optimized pH containing DiFMUP (2 × Km for each PTP) after adding each compound (20 μM). […] The IC50 values were estimated using a sigmoid plot in GraphPad Prism 5 software (GraphPad Software Inc., San Diego, CA, USA). The Hill coefficient (nH), the degree of cooperativity, was calculated according to a previously published method. To determine the inhibition constant (Ki) and identify the inhibition mode of EG, various concentrations of EG (2.5, 5, 10, and 20 μM) were assayed with various concentrations of DiFMUP (260, 130, 65, and 32.5 μM). Kinetic parameters were obtained using Dixon plots for Ki and Lineweaver-Burk plots for the inhibition mode.

B1: SSH2 (Homo sapiens) (protein)
chain: MALVTVQRSPTPSTTSSPCASEADSGEEECRSQPRSISESFLTVKGAALFLPRGNGSSTPRISHRRNKHAGDLQQHLQAMFILLRPEDNIRLAVRLESTYQNRTRYMVVVSTNGRQDTEESIVLGMDFSSNDSSTCTMGLVLPLWSDTLIHLDGDGGFSVSTDNRVHIFKPVSVQAMWSALQSLHKACEVARAHNYYPGSLFLTWVSYYESHINSDQSSVNEWNAMQDVQSHRPDSPALFTDIPTERERTERLIKTKLREIMMQKDLENITSKEIRTELEMQMVCNLREFKEFIDNEMIVILGQMDSPTQIFEHVFLGSEWNASNLEDLQNRGVRYILNVTREIDNFFPGVFEYHNIRVYDEEATDLLAYWNDTYKFISKAKKHGSKCLVHCKMGVSRSASTVIAYAMKEYGWNLDRAYDYVKERRTVTKPNPSFMRQLEEYQGILLASKQRHNKLWRSHSDSDLSDHHEPICKPGLELNKKDITTSADQIAEVKTMESHPPIPPVFVEHMVPQDANQKGLCTKERMICLEFTSREFHAGQIEDELNLNDINGCSSGCCLNESKFPLDNCHASKALIQPGHVPEMANKFPDLTVEDLETDALKADMNVHLLPMEELTSPLKDPPMSPDPESPSPQPSCQTEISDFSTDRIDFFSALEKFVELSQETRSRSFSHSRMEELGGGRNESCRLSVVEVAPSKVTADDQRSSSLSNTPHASEESSMDEEQSKAISELVSPDIFMQSHSENAISVKEIVTEIESISQGVGQIQLKGDILPNPCHTPKKNSIHELLLERAQTPENKPGHMEQDEDSCTAQPELAKDSGMCNPEGCLTTHSSIADLEEGEPAEGEQELQGSGMHPGAKWYPGSVRRATLEFEERLRQEQEHHGAAPTCTSLSTRKNSKNDSSVADLAPKGKSDEAPPEHSFVLKEPEMSKGKGKYSGSEAGSLSHSEQNATVPAPRVLEFDHLPDPQEGPGSDTGTQQEGVLKDLRTVIPYQESETQAVPLPLPKRVEIIEYTHIVTSPNHTGPGSEIATSEKSGEQGLRKVNMEKSVTVLCTLDENLNRTLDPNQVSLHPQVLPLPHSSSPEHNRPTDHPTSILSSPEDRGSSLSTALETAAPFVSHTTHLLSASLDYLHPQTMVHLEGFTEQSSTTDEPSAEQVSWEESQESPLSSGSEVPYKDSQLSSADLSLISKLGDNTGELQEKMDPLPVACRLPHSSSSENIKSLSHSPGVVKERAKEIESRVVFQAGLTKPSQMRRSASLAKLGYLDLCKDCLPEREPASCESPHLKLLQPFLRTDSGMHAMEDQESLENPGAPHNPEPTKSFVEQLTTTECIVQSKPVERPLVQYAKEFGSSQQYLLPRAGLELTSSEGGLPVLQTQGLQCACPAPGLAVAPRQQHGRTHPLRRLKKANDKKRTTNPFYNTM
Km: 215.3 µM

B2: PTPN7 (Homo sapiens) (protein)
chain: MVQAHGGRSRAQPLTLSLGAAMTQPPPEKTPAKKHVRLQERRGSNVALMLDVRSLGAVEPICSVNTPREVTLHFLRTAGHPLTRWALQRQPPSPKQLEEEFLKIPSNFVSPEDLDIPGHASKDRYKTILPNPQSRVCLGRAQSQEDGDYINANYIRGYDGKEKVYIATQGPMPNTVSDFWEMVWQEEVSLIVMLTQLREGKEKCVHYWPTEEETYGPFQIRIQDMKECPEYTVRQLTIQYQEERRSVKHILFSAWPDHQTPESAGPLLRLVAEVEESPETAAHPGPIVVHCSAGIGRTGCFIATRIGCQQLKARGEVDILGIVCQLRLDRGGMIQTAEQYQFLHHTLALYAGQLPEEPSP
Km: 25.5 µM

B3: PTPN9 (Homo sapiens) (protein)
chain: MEPATAPRPDMAPELTPEEEQATKQFLEEINKWTVQYNVSPLSWNVAVKFLMARKFDVLRAIELFHSYRETRRKEGIVKLKPHEEPLRSEILSGKFTILNVRDPTGASIALFTARLHHPHKSVQHVVLQALFYLLDRAVDSFETQRNGLVFIYDMCGSNYANFELDLGKKVLNLLKGAFPARLKKVLIVGAPIWFRVPYSIISLLLKDKVRERIQILKTSEVTQHLPRECLPENLGGYVKIDLATWNFQFLPQVNGHPDPFDEIILFSLPPALDWDSVHVPGPHAMTIQELVDYVNARQKQGIYEEYEDIRRENPVGTFHCSMSPGNLEKNRYGDVPCLDQTRVKLTKRSGHTQTDYINASFMDGYKQKNAYIGTQGPLENTYRDFWLMVWEQKVLVIVMTTRFEEGGRRKCGQYWPLEKDSRIRFGFLTVTNLGVENMNHYKKTTLEIHNTEERQKRQVTHFQFLSWPDYGVPSSAASLIDFLRVVRNQQSLAVSNMGARSKGQCPEPPIVVHCSAGIGRTGTFCSLDICLAQLEELGTLNVFQTVSRMRTQRAFSIQTPEQYYFCYKAILEFAEKEGMVSSGQNLLAVESQ
Km: 110 µM

B4: PTPN2 (Homo sapiens) (protein)
chain: MPTTIEREFEELDTQRRWQPLYLEIRNESHDYPHRVAKFPENRNRNRYRDVSPYDHSRVKLQNAENDYINASLVDIEEAQRSYILTQGPLPNTCCHFWLMVWQQKTKAVVMLNRIVEKESVKCAQYWPTDDQEMLFKETGFSVKLLSEDVKSYYTVHLLQLENINSGETRTISHFHYTTWPDFGVPESPASFLNFLFKVRESGSLNPDHGPAVIHCSAGIGRSGTFSLVDTCLVLMEKGDDINIKQVLLNMRKYRMGLIQTPDQLRFSYMAIIEGAKCIKGDSSIQKRWKELSKEDLSPAFDHSPNKIMTEKYNGNRIGLEEEKLTGDRCTGLSSKMQDTMEENSESALRKRIREDRKATTAQKVQQMKQRLNENERKRKRWLYWQPILTKMGFMSVILVGAFVGWTLFFQQNAL
Km: 20.0 µM

B5: PTPN3 (Homo sapiens) (protein)
chain: MTSRLRALGGRINNIRTSELPKEKTRSEVICSIHFLDGVVQTFKVTKQDTGQVLLDMVHNHLGVTEKEYFGLQHDDDSVDSPRWLEASKAIRKQLKGGFPCTLHFRVRFFIPDPNTLQQEQTRHLYFLQLKMDICEGRLTCPLNSAVVLASYAVQSHFGDYNSSIHHPGYLSDSHFIPDQNEDFLTKVESLHEQHSGLKQSEAESCYINIARTLDFYGVELHSGRDLHNLDLMIGIASAGVAVYRKYICTSFYPWVNILKISFKRKKFFIHQRQKQAESREHIVAFNMLNYRSCKNLWKSCVEHHTFFQAKKLLPQEKNVLSQYWTMGSRNTKKSVNNQYCKKVIGGMVWNPAMRRSLSVEHLETKSLPSRSPPITPNWRSPRLRHEIRKPRHSSADNLANEMTYITETEDVFYTYKGSLAPQDSDSEVSQNRSPHQESLSENNPAQSYLTQKSSSSVSPSSNAPGSCSPDGVDQQLLDDFHRVTKGGSTEDASQYYCDKNDNGDSYLVLIRITPDEDGKFGFNLKGGVDQKMPLVVSRINPESPADTCIPKLNEGDQIVLINGRDISEHTHDQVVMFIKASRESHSRELALVIRRRAVRSFADFKSEDELNQLFPEAIFPMCPEGGDTLEGSMAQLKKGLESGTVLIQFEQLYRKKPGLAITFAKLPQNLDKNRYKDVLPYDTTRVLLQGNEDYINASYVNMEIPAANLVNKYIATQGPLPHTCAQFWQVVWDQKLSLIVMLTTLTERGRTKCHQYWPDPPDVMNHGGFHIQCQSEDCTIAYVSREMLVTNTQTGEEHTVTHLQYVAWPDHGVPDDSSDFLEFVNYVRSLRVDSEPVLVHCSAGIGRTGVLVTMETAMCLTERNLPIYPLDIVRKMRDQRAMMVQTSSQYKFVCEAILRVYEEGLVQMLDPS
Km: 2.0 µM
